These results are taken from FireProtDB (doi:10.1093/jb/mvq079).

B1: Divalent-cation tolerance protein CutA, P69488 (parent)
chain: MLDEKSSNTASVVVLCTAPDEATAQDLAAKVLAEKLAACATLIPGATSLYYWEGKLEQEYEVQMILKTTVSHQQALLECLKSHHPYQTPELLVLPVTHGDTDYLSWLNASLR

The variants in the data set derive from B1. The following applies: Escherichia coli (strain K12), structure 3X3U, whole UniProt chain shown; for ddG of mutation (higher = less stable) / denaturant midpoint (higher = more stable): pH 8, 37 °C, GdnHCl, CD, Tris-HCl, reversible: yes; for Tm / change of melting temperature, mutant - wild type (higher = more stable): pH 9, Thermal, DSC, glycine Buffer, transition: 2, reversible: no.

The Tm is the temperature at which the thermal transition is half complete. With Y86D, the “ddG of mutation (higher = less stable)” value turned out to be 6.38 kcal/mol; the “denaturant midpoint (higher = more stable)” value (“denaturant midpoint” below) stood at 2.67 M; the Tm worked out at 76.8 °C; the “change of melting temperature, mutant - wild type (higher = more stable)” value (“change of melting temperature, mutant” for short) was -13.1 °C.
With E61V, the “ddG of mutation (higher = less stable)” value was -3.42 kcal/mol; the “denaturant midpoint” value turned out to be 3.29 M; the melting temperature (Tm) amounted to 103 °C; the “change of melting temperature, mutant” value was found to be 13.5 °C.
As for E61H, the Tm stood at 94.3 °C and the “change of melting temperature, mutant” value was found to be 4.4 °C.
As to E61T, the “ddG of mutation (higher = less stable)” value is -3.15 kcal/mol; the “denaturant midpoint” value is 2.99 M; the Tm is 98.6 °C; the “change of melting temperature, mutant” value amounted to 8.7 °C.
As for G45Q, the Tm came out at 82.1 °C and the “change of melting temperature, mutant” value is -7.8 °C.
S11V E59K E61T: the “denaturant midpoint” value was 3.48 M.
As to E59K E61V, the “ddG of mutation (higher = less stable)” value is -5.47 kcal/mol; the “denaturant midpoint” value came out at 3.24 M; the Tm was found to be 104 °C; the “change of melting temperature, mutant” value is 14.4 °C.
Turning to S11V E61T, the “denaturant midpoint” value was 3.48 M; the Tm was found to be 112 °C; the “change of melting temperature, mutant” value was 22.4 °C.
As for S11V E61V, the “denaturant midpoint” value came to 3.8 M; the Tm worked out at 114 °C; the “change of melting temperature, mutant” value is 23.6 °C.
The matching figures for Q73V: 3.4 M, 94 °C and 4.1 °C.
The matching figures for S11V E61T Q73V: 4.2 M, 114 °C and 23.7 °C.
As for S11V E61V Q73V, the “denaturant midpoint” value came out at 4.67 M.
E59Q: the midpoint of thermal melting (Tm) was determined as 98.3 °C and the “change of melting temperature, mutant” value was 8.4 °C.
For the variant E59L, the “ddG of mutation (higher = less stable)” value was -2.89 kcal/mol; the “denaturant midpoint” value stood at 2.96 M; the Tm is 100 °C; the “change of melting temperature, mutant” value is 10.3 °C.
With E59K, the “ddG of mutation (higher = less stable)” value is -3.92 kcal/mol; the “denaturant midpoint” value is 3.01 M; the Tm was found to be 104 °C; the “change of melting temperature, mutant” value turned out to be 14.3 °C.
With Y60T, the Tm was 91.9 °C and the “change of melting temperature, mutant” value came out at 2 °C.
As to S11V, the “denaturant midpoint” value was determined as 3.31 M; the Tm amounted to 105 °C; the “change of melting temperature, mutant” value was found to be 15.1 °C.
Take S11A: the Tm was 106 °C and the “change of melting temperature, mutant” value was found to be 16.5 °C.
As for S11I, the Tm is 103 °C and the “change of melting temperature, mutant” value came out at 12.8 °C.
